Laboratory results from PMC8395514, “Characterization of Class V DyP-Type Peroxidase SaDyP1 from Streptomyces avermitilis and Evaluation of SaDyPs Expression in Mycelium” (International Journal of Molecular Sciences, 2021).

What was measured:
SaDyP1 = biological target: T1, SaDyP1 (Streptomyces avermitilis, UniProt Q82QF8); test: initial-rate peroxidase assay, absorbance […] nm, Haldane fit; format: biochemical; details: 0.20 mM H2O2, 25 mM citrate, pH 4.0 in Table 3 and methods (pH 4.5 in Figure 5 legend), substrate inhibition model; substrate inhibition constant (Haldane)
T1 construct: gene SAVERM_549
T1 sequence (Q82QF8 1-442): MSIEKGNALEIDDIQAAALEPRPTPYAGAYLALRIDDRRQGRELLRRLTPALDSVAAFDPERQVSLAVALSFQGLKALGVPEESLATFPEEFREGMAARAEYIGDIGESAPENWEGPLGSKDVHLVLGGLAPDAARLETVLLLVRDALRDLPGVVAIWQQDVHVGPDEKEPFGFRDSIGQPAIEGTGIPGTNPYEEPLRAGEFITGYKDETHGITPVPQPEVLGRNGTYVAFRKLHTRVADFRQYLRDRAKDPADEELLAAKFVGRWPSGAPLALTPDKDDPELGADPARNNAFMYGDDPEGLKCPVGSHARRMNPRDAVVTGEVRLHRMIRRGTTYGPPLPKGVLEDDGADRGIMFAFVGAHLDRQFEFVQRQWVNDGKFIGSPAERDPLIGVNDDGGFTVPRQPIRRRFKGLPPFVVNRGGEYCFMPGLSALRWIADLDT

purified protein [1] = substrate: CCn1c(=NN=c2sc3cc(S(=O)(=O)O)ccc3n2CC)sc2cc(S(=O)(=O)O)ccc21; test: purified protein; format: biochemical, Streptomyces avermitilis; details: 0.20 mM H2O2, 25 mM citrate, pH 4.0 in Table 3 and methods (pH 4.5 in Figure 5 legend), substrate inhibition model
purified protein [2] = substrate: COc1cccc(OC)c1O; test: purified protein; format: biochemical, Streptomyces avermitilis; details: 0.20 mM H2O2, 25 mM citrate, pH 4.0

CCn1c(=NN=c2sc3cc(S(=O)(=O)O)ccc3n2CC)sc2cc(S(=O)(=O)O)ccc21 [ABTS, 2,2′-azinobis [3-ethylbenzothiazoline-6-sulfonic acid]]
Ki (SaDyP1): 13 mM

B1: SaDyP1 (Streptomyces avermitilis MA-4680 = NBRC 14893) (protein)
chain: MSIEKGNALEIDDIQAAALEPRPTPYAGAYLALRIDDRRQGRELLRRLTPALDSVAAFDPERQVSLAVALSFQGLKALGVPEESLATFPEEFREGMAARAEYIGDIGESAPENWEGPLGSKDVHLVLGGLAPDAARLETVLLLVRDALRDLPGVVAIWQQDVHVGPDEKEPFGFRDSIGQPAIEGTGIPGTNPYEEPLRAGEFITGYKDETHGITPVPQPEVLGRNGTYVAFRKLHTRVADFRQYLRDRAKDPADEELLAAKFVGRWPSGAPLALTPDKDDPELGADPARNNAFMYGDDPEGLKCPVGSHARRMNPRDAVVTGEVRLHRMIRRGTTYGPPLPKGVLEDDGADRGIMFAFVGAHLDRQFEFVQRQWVNDGKFIGSPAERDPLIGVNDDGGFTVPRQPIRRRFKGLPPFVVNRGGEYCFMPGLSALRWIADLDT
Km (purified protein [1]): 1200 µM
kcat (purified protein [1]): 2.8 s⁻¹
kcat/Km (purified protein [1]): 2400 M⁻¹ s⁻¹
Km (purified protein [2]): 610 µM
kcat (purified protein [2]): 0.23 s⁻¹
kcat/Km (purified protein [2]): 380 M⁻¹ s⁻¹
